Experimental data as given in publication PMC5068707 (PLoS Pathogens, 2016).

T1: SUDV VP30 CTD (139–288) (Sudan ebolavirus (SUDV), UniProt Q5XX03 139-288)
T1 chain: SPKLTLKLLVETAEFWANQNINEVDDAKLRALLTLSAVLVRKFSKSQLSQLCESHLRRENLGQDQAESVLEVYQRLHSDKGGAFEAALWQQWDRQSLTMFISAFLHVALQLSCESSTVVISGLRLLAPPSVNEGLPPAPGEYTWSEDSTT

T2: SUDV VP30 CTD (139–288) (Sudan ebolavirus (SUDV), UniProt Q5XX03 139-288)
T2 sequence: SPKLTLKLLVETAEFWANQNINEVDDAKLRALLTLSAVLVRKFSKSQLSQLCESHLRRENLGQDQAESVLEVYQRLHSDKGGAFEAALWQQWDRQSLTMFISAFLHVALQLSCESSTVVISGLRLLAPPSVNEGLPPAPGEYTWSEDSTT

T3: MARV VP30 CTD (146–281) (Marburg virus (MARV), UniProt P35258 146-281)
T3 chain: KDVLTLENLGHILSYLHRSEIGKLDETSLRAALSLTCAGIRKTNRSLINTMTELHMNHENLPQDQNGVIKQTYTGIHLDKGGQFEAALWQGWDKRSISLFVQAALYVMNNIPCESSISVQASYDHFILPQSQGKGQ

T4: Ebola virus VP30 C-terminal domain (amino acids 139–288) (Ebola virus (EBOV), UniProt Q05323 139-288)
T4 chain: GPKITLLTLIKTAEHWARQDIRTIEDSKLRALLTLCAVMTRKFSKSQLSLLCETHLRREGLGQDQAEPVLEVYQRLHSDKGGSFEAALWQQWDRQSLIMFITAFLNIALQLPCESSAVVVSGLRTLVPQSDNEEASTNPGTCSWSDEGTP


Legend:
Assay in all cases: ITC
SUDV VP30 CTD (139–288) [1] = target: T1, SUDV VP30 CTD (139–288)
SUDV VP30 CTD (139–288) [2] = target: T2, SUDV VP30 CTD (139–288); details: both partners purified
MARV VP30 CTD (146–281) = target: T3, MARV VP30 CTD (146–281)
[3] = target: T4, Ebola virus VP30 C-terminal domain …

Binder	Kd (SUDV VP30 CTD (139–288) [1])	binding result (SUDV VP30 CTD (139–288) [2])	Kd (MARV VP30 CTD (146–281))	Kd [3]
EQGVDLPPPPLYAQEKRQ [MARV NP peptide (552–569) fused to T4 lysozyme]	27.1 µM			
RTPTVAPPAPVYRDHSEK [EBOV NP 600–617 fused to T4 lysozyme]	4.9 µM	binds	35 µM	
NTPTVAPPAPVYKDTGVD [SUDV NP peptide (600–617) fused to T4 lysozyme]	7.98 µM		70 µM	9.5 µM
